Kd data for 1 molecule are collected here from paper PMC11879086, “Identification and characterization of a human MORC2 DNA binding region that is required for gene silencing” (Nucleic Acids Research, 2024).

One data set addresses T1, MORC2 1-603 (Homo sapiens, UniProt Q9Y6X9 1-603).
T1 sequence: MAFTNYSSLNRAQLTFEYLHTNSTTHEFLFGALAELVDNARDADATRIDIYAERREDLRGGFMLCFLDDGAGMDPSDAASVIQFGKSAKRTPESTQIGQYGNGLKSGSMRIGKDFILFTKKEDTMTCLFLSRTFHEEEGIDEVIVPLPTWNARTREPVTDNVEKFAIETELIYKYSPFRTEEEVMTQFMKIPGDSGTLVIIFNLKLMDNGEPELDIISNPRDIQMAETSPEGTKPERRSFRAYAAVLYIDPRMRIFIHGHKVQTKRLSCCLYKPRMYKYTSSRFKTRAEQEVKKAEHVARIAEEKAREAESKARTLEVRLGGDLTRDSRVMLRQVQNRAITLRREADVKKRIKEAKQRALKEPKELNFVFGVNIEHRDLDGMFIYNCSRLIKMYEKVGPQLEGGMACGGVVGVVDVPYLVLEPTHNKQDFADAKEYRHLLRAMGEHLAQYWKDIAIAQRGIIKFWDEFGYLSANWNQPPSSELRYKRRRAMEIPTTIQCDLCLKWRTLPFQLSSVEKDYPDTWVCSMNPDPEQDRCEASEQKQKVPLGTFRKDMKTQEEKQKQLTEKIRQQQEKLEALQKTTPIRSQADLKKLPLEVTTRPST
Briefly: fluorescence anisotropy; apo; FA/EMSA: 50 mM NaCl, 3 mM MgCl2, 20 mM Na-HEPES pH 7.4, 1 mM TCEP, 10% glycerol, 0.025 mM ZnCl2, 50 ug/ml BSA, room temperature; 1 nM nucleic acid (FA) or 20 nM DNA (EMSA). To be noted: protein: recombinant; tags: tag removed by TEV; label: 5'-6-FAM; blunt.

The target in another data set is T2, MORC2 subset C (Homo sapiens, UniProt Q9Y6X9 1-1032, R754D;R755D;K756D;R758D;K760D;R761D).
T2 sequence: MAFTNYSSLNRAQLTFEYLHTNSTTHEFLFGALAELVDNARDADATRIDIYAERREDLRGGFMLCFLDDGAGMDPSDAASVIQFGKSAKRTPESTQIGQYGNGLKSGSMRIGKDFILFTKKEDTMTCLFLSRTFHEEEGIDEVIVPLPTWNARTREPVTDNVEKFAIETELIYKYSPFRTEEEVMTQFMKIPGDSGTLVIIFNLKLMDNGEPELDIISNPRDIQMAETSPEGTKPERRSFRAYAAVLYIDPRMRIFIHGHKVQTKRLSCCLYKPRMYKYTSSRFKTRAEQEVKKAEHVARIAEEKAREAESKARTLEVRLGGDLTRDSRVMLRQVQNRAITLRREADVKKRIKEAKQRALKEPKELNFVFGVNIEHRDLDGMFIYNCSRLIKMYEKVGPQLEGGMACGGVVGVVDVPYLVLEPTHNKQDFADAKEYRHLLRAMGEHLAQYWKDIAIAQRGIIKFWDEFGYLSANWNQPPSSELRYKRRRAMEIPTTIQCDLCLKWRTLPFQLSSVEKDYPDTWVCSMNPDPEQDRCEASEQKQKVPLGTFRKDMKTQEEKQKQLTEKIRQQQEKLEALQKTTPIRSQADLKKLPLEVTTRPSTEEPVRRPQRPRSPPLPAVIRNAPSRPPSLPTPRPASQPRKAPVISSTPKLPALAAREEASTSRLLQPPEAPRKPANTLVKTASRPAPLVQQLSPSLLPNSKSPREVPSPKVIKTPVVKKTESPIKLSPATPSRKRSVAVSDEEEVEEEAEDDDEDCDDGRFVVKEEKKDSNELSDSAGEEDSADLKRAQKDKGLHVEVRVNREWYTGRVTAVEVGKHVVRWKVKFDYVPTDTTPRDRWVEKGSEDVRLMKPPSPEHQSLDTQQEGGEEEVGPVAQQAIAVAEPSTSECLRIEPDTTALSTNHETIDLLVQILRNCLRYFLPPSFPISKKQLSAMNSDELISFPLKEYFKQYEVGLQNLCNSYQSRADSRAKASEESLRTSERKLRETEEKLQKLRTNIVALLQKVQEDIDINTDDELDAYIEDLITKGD
The description is as above. To be noted: protein: recombinant; tags: tag removed by TEV; chain copies: 2; label: 5'-6-FAM; blunt.

B1: Random 35mer dsDNA (dsDNA)
DNA 1: ATAGGGTCCATCAGAATTCGGATGAACTCGGTGTG
DNA 2: CACACCGAGTTCATCCGAATTCTGATGGACCCTAT
On to B1, for which the dissociation constant Kd with MORC2 1-603 is 446 ± 119 nM; with MORC2 subset C, 60 ± 20 nM.
